System: hES cells
Assay: Embryoid body differentiation of hES cells, visual scoring of beating EBs
Format: cell-based, human
Settings: growth factor 10 ng/ml added to END2-CM, day 12, compared to END2-CM alone
Experimental: This procedure describes the formation of embryoid bodies (EB) from collagenase-derived hES cell cultures. After formation the EBs were then exposed to END2 conditioned medium (CM).
Enzymatically passaged hES cells grown on feeder cells were washed once with PBS^+ and treated with Collagenase IV (1 mg/ml) for 3-4 min at 37° C. The Collagenase IV solution was replaced by DMEM and the cells were mechanically dissociated with a pipette tip. Cells were then harvested using a cell scraper and the cell suspension was transferred to a 50 ml tube (Falcon). Cell clumps were collected by gravity and the supernatant was aspirated. Cells were resuspended in fresh DMEM medium aiming to uniformly disperse the cell clumps in the suspension. An equal volume of the cell suspension was then transferred to ultra low attachment plates (Costar). […]
In suspension culture, EBs are formed in ultra low attachment plates in SF medium over night. […] Usually, cells were cultured over a period of 12-13 days before the visual analysis of the proportion of beating EBs under a microscope was performed followed by cell collection for additional readouts. Multiple beating areas on single EBs were not counted separately. Values are expressed as a percentage of contracting EBs compared to […] in a single well of a 6-well tray. […] An average value per well was calculated and presented.

B1: Bmp6: recombinant human Bmp6 (R&D) (protein, UniProt P22004 375-513, looked up)
Bone morphogenetic protein 6: SASSRRRQQSRNRSTQSQDVARVSSASDYNSSELKTACRKHELYVSFQDLGWQDWIIAPKGYAANYCDGECSFPLNAHMNATNHAIVQTLVHLMNPEYVPKPCCAPTKLNAISVLYFDDNSNVILKKYRNMVVRACGCH
CM induction activity (number of beating areas): enhance CM induction activity

Reference: patent US8318489B2, “Prostacyclin directed differentiation of cardiomyocytes from human embryonic stem cells” (priority 2005, dated 2012)
